In experiment [1] the test system is OGG1 and APE1. The experiment in a line: LXRepair multiplex DNA base excision repair enzyme activities in MPCs. The format is cell-based, mice. The note with it: siRNA-treated MPCs from young animals, 48 hours of α-Klotho supplementation. How it is done: LXRepair multiplex technology (see, e.g., Garreau-Balandier et al., 2014 FEBS Lett, 588:1673-9; and Sauvaigo et al., 2004 Anal Biochem, 333:182-92) was used to evaluate the DNA base excision repair (BER) enzyme activities of OGG1 and APE1, which work on two common oxidative DNA lesions, 8-oxodG and abasic sites, respectively.
MPCs were treated with 25 nmol of silencing RNA (siRNA) to α-Klotho (GE Dharmacon, Product no.SO2462181G) for 48 hours. As a control, young MPCs were treated with a non-targeting (scramble) siRNA. Aged MPCs were treated with 0.05μg/mL exogenous α-Klotho (R & D systems, Product no. aa 34-981), added to the culture media for 48 hours.

The subject of experiment [2] is aged mice. Nature of the experiment: Cardiotoxin TA muscle injury in aged mice, α-Klotho supplementation in vivo. The conditions noted are these: for functional recovery (wire hang test, in situ contractile testing) / myofiber area / number of regenerating fibers: daily i.p. 10 μg/kg. As for the experimental part: Wild-type male C57BL/6 young, Kl+/− mice, or old mice received injuries to bilateral Tibialis Anterior (TA) muscles via an intramuscular injection of cardiotoxin (10 μL of 1 mg/mL). Fourteen days following the injury, TAs were harvested for histological analysis of α-Klotho, fibrosis (picrosirius red), degenerating myofibers (IgG) and myofiber regeneration (laminin). Second Harmonic Generation (SHG) imaging was performed on isolated TA muscles treated with a non-targeting control or lentiviral knockdown of α-Klotho, as well as pump-administered animals in order to visualize collagen and myofibers within the muscle 14 days post injury, as described elsewhere (see, e.g., Zhang et al., 2016 Stem Cells 34:732-742).
Strength endurance was tested using the hang-wire test as described elsewhere (see, e.g., Aartsma-Rus et al., J. Vis. Exp 85:51303 (2014)). The Hang Impulse (HI) score was calculated as bodyweight (grams)×time hung (seconds). Male mice were used for all testing using C57B1/6 mice. Wild type and Kl+/− were females for testing.
Mini osmotic pumps containing either saline or α-Klotho (324 pg/ml in saline vehicle) were inserted subcutaneously into aged mice. After 2 days, bilateral TA muscles were injured by intramuscular CTX injection (as above). Osmotic pumps remained implanted until euthanasia 14 days post injury. Isotonic saline or α-Klotho (10 μg/kg body weight) was administered to aged animals via daily intraperitoneal injections over days 1-3 post-injury or 3-5 days post-injury. The TAs were then harvested 14 days post injury and preserved for histology or SHG analysis. Blood serum was also collected to evaluate circulating α-Klotho levels via ELISA. The activity of α-Klotho was confirmed as described elsewhere (see, e.g., Shalhoub et al., 2011 Calcif Tissue Int, 89:140-50).

Experiment [3] deals with MPCs. The experiment in a line: Seahorse XFe96 analysis of MPC bioenergetics (basal OCR, reserve capacity). The note with it: aged MPCs, recombinant α-Klotho in culture for 48 hours, 0.05μg/mL. It is filed as cell-based, mice. How it is done: In light of the loss of mitochondrial ultrastructural resulting from decreased α-Klotho expression, we next evaluated whether loss of α-Klotho drives MPC mitochondrial dysfunction. The bioenergetic profiles of young and aged MPCs were studied using a Seahorse XFe96 Flux analyzer, which measures oxygen consumption rate (OCR), a measure of oxidative phosphorylation. OCR was measured again after injection of oligomycin, FCCP, 2-deoxyglucose (2-DG), and rotenone. […] When young MPCs were treated with siRNA to α-Klotho, basal OCR was reduced to ˜25% values of scramble-treated counterparts (FIG. 4C, FIG. 14). MPCs isolated from uninjured Kl+/− mice display a similarly blunted bioenergetic profile (FIG. 4D). […] Reserve capacity represents the spare bioenergetic capacity, is calculated as the difference between the basal and maximal OCR, and indicates the ability of a cell to respond to stress. […]
(§1) Oxygen consumption rate (OCR) and extracellular acidification rate (ECAR) were measured in real time using a Seahorse XFe96 Extracellular Flux Analyzer (Billerica, Mass.) as described elsewhere (see, e.g., de Moura and Van Houten, 2014 Methods Mol Biol, 1105:589-602). The basal OCR was measured by averaging the OCR values before treating the cells with oligomycin. Total reserve capacity was calculated by the differences of OCR between treatment with FCCP and 2DG and basal values. […]

Experiment [4] relates to MPCs. Nature of the experiment: qPCR-based analysis of mtDNA damage and mtDNA copy number in MPCs. The format is cell-based, mice. The note with it: aged MPCs, recombinant α-Klotho in culture for 48 hours, 0.05μg/mL. How it is done: mtDNA integrity was next examined in MPCs isolated from young or aged mice, using a qPCR-based assay. The method used is based on the principle that a wide variety of types of DNA damage have the propensity to block DNA polymerase progression (see, e.g., Furda et al., 2012 DNA Repair (Amst), 11:684-92). Therefore, this assay detects numerous kinds of base DNA damage or DNA repair intermediates such as abasic sites, as well as single and double DNA strand breaks.
MPCs were treated with 25 nmol of silencing RNA (siRNA) to α-Klotho (GE Dharmacon, Product no.SO2462181G) for 48 hours. As a control, young MPCs were treated with a non-targeting (scramble) siRNA. […]
as §1, with “values. Mitochondrial DNA damage was quantified as described elsewhere (see, e.g., Sanders et al., 2014 Toxicol Sci, 142:395-402; and Sanders et al., 2014 Neurobiol Dis, 62:381-6).” for “values.”
On the technique in general: Quantitative PCR measures a nucleic acid by following its amplification.

One molecule from patent US20220008520A1, “METHODS AND MATERIALS FOR REDUCING AGE-RELATED STRIATED MUSCLE AND COGNITIVE DECLINE” (University of Pittsburgh - Of the Commonwealth System of …, priority 2018, published 2022) can be followed below.

B1: α-Klotho: recombinant/exogenous α-Klotho protein (R & D systems, Product no. aa 34-981) (protein)
chain: AEPGQGAQTWARFARAPAPEAAGLLHDTFPDGFLWAVGSAAYQTEGGWRQHGKGASIWDTFTHHSGAAPSDSPIVVAPSGAPSPPLSSTGDVASDSYNNVYRDTEGLRELGVTHYRFSISWARVLPNGTAGTPNREGLRYYRRLLERLRELGVQPVVTLYHWDLPQRLQDTYGGWANRALADHFRDYAELCFRHFGGQVKYWITIDNPYVVAWHGYATGRLAPGVRGSSRLGYLVAHNLLLAHAKVWHLYNTSFRPTQGGRVSIALSSHWINPRRMTDYNIRECQKSLDFVLGWFAKPIFIDGDYPESMKNNLSSLLPDFTESEKRLIRGTADFFALSFGPTLSFQLLDPNMKFRQLESPNLRQLLSWIDLEYNHPPIFIVENGWFVSGTTKRDDAKYMYYLKKFIMETLKAIRLDGVDVIGYTAWSLMDGFEWHRGYSIRRGLFYVDFLSQDKELLPKSSALFYQKLIEDNGFPPLPENQPLEGTFPCDFAWGVVDNYVQVDTTLSQFTDPNVYLWDVHHSKRLIKVDGVVAKKRKPYCVDFSAIRPQITLLREMRVTHFRFSLDWALILPLGNQTQVNHTVLHFYRCMISELVHANITPVVALWQPAAPHQGLPHALAKHGAWENPHTALAFADYANLCFKELGHWVNLWITMNEPNTRNMTYRAGHHLLRAHALAWHLYDDKFRAAQKGKISIALQADWIEPACPFSQNDKEVAERVLEFDIGWLAEPIFGSGDYPRVMRDWLNQKNNFLLPYFTEDEKKLVRGSFDFLAVSHYTTILVDWEKEDPMKYNDYLEVQEMTDITWLNSPSQVAVVPWGLRKVLNWLRFKYGDLPMYVTANGIDDDPHAEQDSLRIYYIKNYVNEALKAYVLDDINLCGYFAYSLSDRSAPKSGFYRYAANQFEPKPSMKHYRKIIDSNGFLGSGTLGRFCPEEYTVCTECGFFQTRKSLLVFISFLVFTFIISLALIFHYSKKGQRSYK
For B1, the “activity of BER enzymes (OGG1, APE1; 8-oxodG and abasic sites)” value in experiment [1] is given as “dramatically stimulated the activity of these BER enzymes”. For the same molecule, the “activity of BER enzymes (OGG1, APE1; 8-oxodG and abasic sites)” value in experiment [1] (listed as Klotho) is recorded as “stimulated repair”. Further, in experiment [2] (1-3 dpi), the “functional recovery (wire hang test, in situ contractile testing)” value is listed as “only animals receiving α-Klotho over 3-5 dpi displayed an improved functional recovery”; the myofiber area result is given as “significant increase in myofiber area”; the “number of regenerating fibers” value is “significant increase in the number of regenerating fibers”. Also, in experiment [2] (3-5 dpi), the “functional recovery (wire hang test, in situ contractile testing)” value is “improved functional recovery”; the myofiber area entry is reported as “significant increase in myofiber area”; the “number of regenerating fibers” value is “significant increase in the number of regenerating fibers”. In experiment [2] (osmotic pump, 324 pg/ml, 14 dpi), the “local α-Klotho within the injured muscle areas” value is “significant increase in local α-Klotho”. Besides, in experiment [2] (osmotic pump, 14 dpi), the “increase in the number of MyoD+ cells at the site of injury” value was “approximately 3.5 fold”; the “number of regenerating fibers after injury (histology and SHG)” value was “increased number of regenerating fibers”. Moreover, in experiment [2] (osmotic pump, vs saline), the “myofiber cross sectional area” value is reported as “no significant increase” and the total muscle area entry was “no significant increase”. Also, in experiment [3], the OCR entry is recorded as “increased OCR” and the reserve capacity result is “increased reserve capacity”. For the same molecule, in experiment [4], the mtDNA damage result is “decreased mtDNA damage”.
